Measurements from patent publication US20170210824A1 (SALK INSTITUTE FOR BIOLOGICAL STUDIES, published 2017).
Where no end group is shown, it is not given here. [ ]: non-standard residue; d: D form. pY = N[C@@H](Cc1ccc(OP(=O)(O)O)cc1)C(=O)O

Legend:
[1] = biological target: T1, Nck pY105 peptide (CGERLpYDLNMPAYVK); test: pTyr peptide dot blot
T1 construct: also called pTyr (NCK) peptide; pTyr peptide (Nck pY105)
T1 peptide: CGERL[pY]DLNMPAYVK

[2] = biological target: T2, Nck Y105 peptide (CGERLYDLNMPAYVK); test: pTyr peptide dot blot
T2 construct: also called unphosphorylated Nck peptide
T2 peptide: CGERLYDLNMPAYVK

[3] = biological target: T3, Eck (Ephrin A2) pY588 peptide (CLKPLKTpYVD); test: pTyr peptide dot blot
T3 construct: also called Eck/EphA2 pTyr peptide
T3 peptide: CLKPLKT[pY]VD

[4] = biological target: T4, Eck (Ephrin A2) Y588 peptide (CLKPLKTYVD); test: pTyr peptide dot blot
T4 construct: also called unphosphorylated Eck peptide
T4 peptide: CLKPLKTYVD

[5] = biological target: T5, FAK pY397 peptide (AVSVSETDDpYAEIIDEEDTYT) (phosphotyrosine at position 10 (pY397)); test: pTyr peptide dot blot
T5 construct: also called FAK pTyr peptide
T5 peptide: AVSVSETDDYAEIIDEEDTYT

[6] = biological target: T6, FLAG-NME1 with 1-pHis, in stably transfected HEK293 cells (UniProt P15531 1-152, limits assumed, 1-phosphohistidine (generated in vivo)); test: immunoblot of FLAG-NME1 293 cell lysates
T6 construct: not shown: FLAG tag
Procedure: Immunoblotting with anti-pHis antibodies: In general, immunoblotting with anti-pHis antibodies was performed with modifications to standard procedures to help preserve pHis for detection. Buffers were adjusted to pH 8-9 to stabilize pHis and methods were modified to avoid heating samples. Protein samples were prepared in pH 8.8 sample buffer (5×=10% SDS, 250 mM Tris-HCl, pH 8.8, 0.02% Bromophenol blue, 50% glycerol, 50 mM EDTA, 500 mM DTT) for electrophoresis. Mammalian whole cell lysates were prepared by rinsing 70-100% confluent 10 cm² dishes twice with 5 ml cold TD buffer (TBS −/−, pH 8). Cells were scraped directly into 2× pH 8.8 sample buffer, incubated on ice and a cup horn sonicator was used (3-5×5 sec bursts) to disrupt cells and shear DNA. Lysates were clarified by centrifugation (14,000×g for 5-15 min at 4° C.) and analyzed immediately using freshly prepared Bis-Tris polyacrylamide minigels with a modified, pH 8.8 stacking gel and either 10% or 12.5% resolving gels. Electrophoresis buffer recipes were as follows: Running Buffer: (1×20 L, pH 8.5) 20 g SDS, 60 g Trizma Base, 288 g glycine, dH₂0 to 20 L, Transfer Buffer: (1×4 L, pH 8.5) 56.7 g glycine, 4 g SDS, 12 g Trizma Base, 800 ml MeOH, dH₂0 to 4 L. All electrophoresis steps were performed at 4° C. and samples were resolved at 90-100V for 2-3 hr. […]

Measured: binding result

T6 sequence (P15531 whole entry): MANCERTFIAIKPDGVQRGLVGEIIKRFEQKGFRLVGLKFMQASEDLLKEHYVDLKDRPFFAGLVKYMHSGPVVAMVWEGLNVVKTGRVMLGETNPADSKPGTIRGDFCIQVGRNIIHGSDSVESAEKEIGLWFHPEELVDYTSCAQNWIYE

B1: 3-pHis mAb SC39-4 (antibody, V domains shown)
VH: ESGGRLVTPGGSLTLTCTVSGFSLSRYNMGWVRQAPGKGLEWIGWIPFRGSLKYATWATGRFTISRTSTTVDLRMTGLTAADTATYFCVRSSDGFDLWGPGTLVTVSS
VL: QFVMTQTPASVEAVVGGTVTIKCQASRDTGDGLIWYQQKPGQPPKRLIYKASTVASGVPSRFKGRGSGTDFTLTISDLECADAATYYCHSNFYNRWTYGNAFGGGTEVVVKG
notes: Rabbit hybridoma monoclonal IgG; also called anti-3-pHis mAb SC39-4; SC39s (subclones of MC39)
no binding: all assays above
